{"source": "patent US20050153395A1", "about": "“Unique integrin binding site in connective tissue growth factor (CTGF)” (CHILDREN'S HOSPITAL INC., priority 2003, published 2005)", "molecules": {"B1": {"name": "CTGF4: C-terminal CTGF fragment comprising essentially module 4 alone, residues 247-349 (protein)", "chain": "EENIKKGKKCIRTPKISKPIKFELSGCTSMKTYRAKFCGVCTDGRCCTPHRTTTLPVEFKCPDGEVMKKNMMFIKTCACHYNCPGDNDIFESLYYRKMYGDMA"}}, "key": {"3T3 cells": {"test_system": "3T3 cells", "test": "3T3 cell adhesion to CTGF-coated non-tissue culture plastic", "assay_type": "cell-based", "conditions": "HPLC-purified E. coli-derived protein", "protocol": "(§1) Adhesion is a well-accepted and reproducible measure of CTGF activity. […] Using 4 liters of CHO conditioned medium approximately 0.5 mg, 1 mg, and 0.1 mg, respectively, of 38 kDa, 16-20 kDa, and 10 kDa CTGF (CTGF1-4, CTGF3-4 and CTGF4, respectively) were produced.\n(§2) To confirm the functionality of residues 247-349 of SEQ ID NO: 1 (containing module 4 alone; denoted as CTGF4), this region of CTGF was produced as a maltose binding protein (MBP) fusion protein in E. coli as described in Ball et al., J Endocrinol; 176: R1-R7, 2003. […] HPLC-purified 10 kDa CTGF promoted 3T3 cell adhesion in a dose-dependent manner, with maximal binding at 8 ng/well. […] Also, the binding of all cell types to 10 kDa CTGF was reduced by EDTA treatment, though this effect was relatively modest in 3T3 cells. Thus, E coli-derived CTGF isoforms comprising essentially module 4 are intrinsically functional in the absence of the other constituent modules of CTGF."}, "[1]": {"test_system": "vascular endothelial cells, intestinal epithelial, and hepatic stellate cells", "test": "Adhesion of cell types to 10 kDa CTGF", "assay_type": "cell-based", "conditions": "vascular endothelial, intestinal epithelial, hepatic stellate cells", "protocol": "as §2"}, "neonatal mice": {"test_system": "neonatal mice", "test": "Fibrogenic response after subcutaneous administration to neonatal mice", "assay_type": "in vivo", "conditions": "administered subcutaneously to neonatal mice", "protocol": "CTGF is also known to induce transdifferentiaion of corneal epithelial cells into α […] muscle actin (αSMA)-expressing myofibroblasts. For example, cells are cultured for 24 hours in the presence and absence of CTGF peptide or CTGF modulator. Subsequently, the treated cells are stained for αSMA. CTGF activity also may be analyzed by measuring for a classic fibrogenic response as described in Leask et al., Mol. Pathol; 54: 180-183, 2001. For example, CTGF peptide or CTGF modulator are administered into the subcutaneous region of the neck of 3 day old mice for 7 consecutive days. Fourteen days after the last injection, the mice are sacrificed and the injected areas are stained for αSMA.\nas §1"}, "integrin αvβ3": {"target": "integrin αvβ3 (Homo sapiens, UniProt P05106+P06756)", "sequence (P06756 31-889 limits assumed)": "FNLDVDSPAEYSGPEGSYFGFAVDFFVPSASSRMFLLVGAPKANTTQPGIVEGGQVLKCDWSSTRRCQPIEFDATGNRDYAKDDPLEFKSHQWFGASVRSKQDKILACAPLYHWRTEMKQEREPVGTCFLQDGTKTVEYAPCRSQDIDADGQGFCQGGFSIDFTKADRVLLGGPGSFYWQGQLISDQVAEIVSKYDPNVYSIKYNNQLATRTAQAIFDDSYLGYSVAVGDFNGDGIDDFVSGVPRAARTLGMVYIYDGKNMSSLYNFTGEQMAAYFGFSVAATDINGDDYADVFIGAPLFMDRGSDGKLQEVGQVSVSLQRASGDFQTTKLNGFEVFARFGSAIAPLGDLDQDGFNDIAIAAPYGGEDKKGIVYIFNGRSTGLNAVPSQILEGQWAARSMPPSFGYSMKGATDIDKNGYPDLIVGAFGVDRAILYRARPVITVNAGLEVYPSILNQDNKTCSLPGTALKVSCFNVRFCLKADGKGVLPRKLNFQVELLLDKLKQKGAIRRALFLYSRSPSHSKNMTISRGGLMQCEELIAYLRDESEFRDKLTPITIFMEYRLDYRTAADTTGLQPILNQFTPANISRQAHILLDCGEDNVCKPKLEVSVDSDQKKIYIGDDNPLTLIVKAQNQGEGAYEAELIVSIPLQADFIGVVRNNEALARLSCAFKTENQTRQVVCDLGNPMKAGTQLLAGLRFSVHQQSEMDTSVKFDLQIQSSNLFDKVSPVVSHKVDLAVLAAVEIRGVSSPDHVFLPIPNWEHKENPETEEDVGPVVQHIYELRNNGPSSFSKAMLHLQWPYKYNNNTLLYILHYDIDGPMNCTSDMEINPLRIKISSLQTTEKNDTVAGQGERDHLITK", "sequence (P06756 891-1048 partner limits assumed)": "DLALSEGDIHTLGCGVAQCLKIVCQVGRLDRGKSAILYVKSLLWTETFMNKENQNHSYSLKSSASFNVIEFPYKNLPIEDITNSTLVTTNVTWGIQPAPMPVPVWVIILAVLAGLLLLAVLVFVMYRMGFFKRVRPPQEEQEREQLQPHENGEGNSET", "sequence (P05106 27-788)": "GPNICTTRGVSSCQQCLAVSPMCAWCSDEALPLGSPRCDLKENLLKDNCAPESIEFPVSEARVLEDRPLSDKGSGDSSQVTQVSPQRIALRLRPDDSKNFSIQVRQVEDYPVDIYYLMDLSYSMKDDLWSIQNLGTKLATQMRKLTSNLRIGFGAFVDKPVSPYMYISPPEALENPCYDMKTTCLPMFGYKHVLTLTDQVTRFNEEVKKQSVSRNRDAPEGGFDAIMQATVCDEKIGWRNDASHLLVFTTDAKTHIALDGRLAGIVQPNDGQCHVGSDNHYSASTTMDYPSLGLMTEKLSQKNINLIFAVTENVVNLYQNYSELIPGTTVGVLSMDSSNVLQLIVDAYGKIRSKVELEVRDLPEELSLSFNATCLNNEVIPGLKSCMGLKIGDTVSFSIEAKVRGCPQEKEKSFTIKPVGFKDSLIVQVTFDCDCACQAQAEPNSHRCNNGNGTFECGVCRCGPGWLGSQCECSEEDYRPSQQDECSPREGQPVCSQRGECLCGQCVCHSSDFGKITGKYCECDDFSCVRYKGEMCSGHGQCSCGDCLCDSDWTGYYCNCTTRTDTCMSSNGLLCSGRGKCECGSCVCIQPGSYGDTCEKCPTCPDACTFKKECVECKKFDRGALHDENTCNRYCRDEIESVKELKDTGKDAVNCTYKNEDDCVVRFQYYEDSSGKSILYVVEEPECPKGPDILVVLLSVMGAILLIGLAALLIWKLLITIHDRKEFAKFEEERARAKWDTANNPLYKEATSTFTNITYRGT", "test": "Solid phase ELISA of integrin αvβ3 binding", "conditions": "coated at different concentrations", "protocol": "Solid phase binding studies were also performed to investigate the binding of CTGF isoforms and αvβ3. Each CTGF isoform or vitronectin was individually coated onto microtiter wells at different concentrations, and the subsequent binding of αvβ3 was detected by ELISA using an anti-human αvβ3 monoclonal antibody. […] Saturation of binding occurred at 2 μg/ml for each CTGF isoform and 4 μg/ml for vitronectin.\nIn order to identify the αvβ3 binding site in CTGF4, eighteen synthetic peptides spanning the entire C-terminal region of CTGF4 (residues 246-349 of SEQ ID NO: 1) were synthesized and used as potential blocking agents in the solid phase binding studies as described in Example 3. […] Integrin αvβ3 was detected by successive incubation with anti-human αvβ3 monoclonal antibody diluted in blocking solution (1:1000), and followed by HRP-conjugated goat anti-mouse IgG (1:4000). The color reaction was developed using the horseradish peroxidase ELISA reagents (Chemicon), and the absorbance at 450 nm was measured using Bio Assay Reader (HTS700).\nThe ability of mutant CTGF4 to bind to integrin αvβ3 was assessed by solid phase ELISA which measured the ability of purified integrin αvβ3 to bind to the CTGF4 mutants."}, "[2]": {"test_system": "pancreatic stellate cells (PSC)", "test": "PSC adhesion assay on coated wells", "assay_type": "cell-based, rat", "conditions": "coated at 2 μg/ml", "excerpt": "Rat PSCs were isolated by a modification of the method described by Phillips et al., Gut; 52:677-82, 2003. Briefly, pancreatic tissue was digested in situ with 0.03% collagenase P (Roche, Indianapolis, Ind.) in HBSS by perfusion through the thoracic aorta. This protocol was approved by the Institutional Animal Care and Use Committee of Children's Research Institute, Columbus, Ohio. The tissue was pooled, minced with scissors, and then digested with 0.05% collagenase P, 0.02% protease XIV (Sigma, St. Louis), and DNase I (Roche, Indianapolis, Ind.) in HBSS. The resulting cell suspension was centrifuged in a 12% Optiprep gradient at 1400 g for 14 minutes. Stellate cells separated into a hazy band just above the interface of a the gradient and the aqueous buffer. This band was harvested, and the cells washed and resuspended in DMEM supplemented with 25 mM Hepes buffer, 10% FBS, and 100 U/ml penicillin in, 100 μg/ml streptomycin. The, cells were maintained at 37° C. in a humidified atmosphere of 5% CO2/95% air.\nThe ability of activated PSC to adhere to non-tissue culture plastic microtiter wells coated with recombinant CTGF1-4, CTGF3-4 or CTGF4 was investigated. The solid phase binding assay was carried out as described in Example 2. […] To assess the possibility that CTGF-mediated PSC adhesion involved cell surface integrins, the effect of divalent cations on cell adhesion was examined, as described in Example 2. […]\nBecause CTGF is a heparin-binding protein, this property was further investigated.\nTo identify the peptides that bind to PSCs, cell adhesion assays were carried out as described in Example 3.\nTo further investigate the peptide binding, P2 or P5 (10 μM) or vehicle buffer alone (no add) were added to PSC cell suspensions for 30 minutes at room temperature."}, "integrin α5β1": {"target": "integrin α5β1 (Homo sapiens, UniProt P05556+P08648)", "sequence (P08648 42-894 limits assumed)": "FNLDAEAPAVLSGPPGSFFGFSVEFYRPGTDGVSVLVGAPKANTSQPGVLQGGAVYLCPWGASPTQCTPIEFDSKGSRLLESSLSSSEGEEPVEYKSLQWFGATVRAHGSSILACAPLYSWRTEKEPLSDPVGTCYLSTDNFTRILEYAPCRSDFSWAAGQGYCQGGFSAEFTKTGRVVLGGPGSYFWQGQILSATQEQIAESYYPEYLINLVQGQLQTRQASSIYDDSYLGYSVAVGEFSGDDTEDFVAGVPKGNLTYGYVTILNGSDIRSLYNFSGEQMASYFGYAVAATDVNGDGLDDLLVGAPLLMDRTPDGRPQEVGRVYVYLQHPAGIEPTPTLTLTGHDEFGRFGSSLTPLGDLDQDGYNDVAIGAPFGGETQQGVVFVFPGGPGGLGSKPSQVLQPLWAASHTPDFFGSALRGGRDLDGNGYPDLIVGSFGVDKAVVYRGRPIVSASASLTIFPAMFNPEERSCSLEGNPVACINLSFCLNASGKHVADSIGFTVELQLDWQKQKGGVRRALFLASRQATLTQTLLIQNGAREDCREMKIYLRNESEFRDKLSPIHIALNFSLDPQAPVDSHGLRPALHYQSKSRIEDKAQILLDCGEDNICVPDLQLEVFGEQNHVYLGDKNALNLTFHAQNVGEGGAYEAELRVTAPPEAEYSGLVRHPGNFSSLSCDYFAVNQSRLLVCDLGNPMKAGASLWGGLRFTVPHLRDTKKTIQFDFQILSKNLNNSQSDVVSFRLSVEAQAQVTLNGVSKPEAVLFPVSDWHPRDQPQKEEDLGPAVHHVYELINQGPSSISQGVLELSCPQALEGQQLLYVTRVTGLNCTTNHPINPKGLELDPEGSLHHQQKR", "sequence (P08648 895-1049 partner limits assumed)": "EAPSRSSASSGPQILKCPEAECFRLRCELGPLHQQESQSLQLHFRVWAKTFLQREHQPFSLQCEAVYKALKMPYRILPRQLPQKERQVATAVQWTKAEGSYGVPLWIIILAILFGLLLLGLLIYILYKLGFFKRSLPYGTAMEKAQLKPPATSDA", "sequence (P05556 21-798)": "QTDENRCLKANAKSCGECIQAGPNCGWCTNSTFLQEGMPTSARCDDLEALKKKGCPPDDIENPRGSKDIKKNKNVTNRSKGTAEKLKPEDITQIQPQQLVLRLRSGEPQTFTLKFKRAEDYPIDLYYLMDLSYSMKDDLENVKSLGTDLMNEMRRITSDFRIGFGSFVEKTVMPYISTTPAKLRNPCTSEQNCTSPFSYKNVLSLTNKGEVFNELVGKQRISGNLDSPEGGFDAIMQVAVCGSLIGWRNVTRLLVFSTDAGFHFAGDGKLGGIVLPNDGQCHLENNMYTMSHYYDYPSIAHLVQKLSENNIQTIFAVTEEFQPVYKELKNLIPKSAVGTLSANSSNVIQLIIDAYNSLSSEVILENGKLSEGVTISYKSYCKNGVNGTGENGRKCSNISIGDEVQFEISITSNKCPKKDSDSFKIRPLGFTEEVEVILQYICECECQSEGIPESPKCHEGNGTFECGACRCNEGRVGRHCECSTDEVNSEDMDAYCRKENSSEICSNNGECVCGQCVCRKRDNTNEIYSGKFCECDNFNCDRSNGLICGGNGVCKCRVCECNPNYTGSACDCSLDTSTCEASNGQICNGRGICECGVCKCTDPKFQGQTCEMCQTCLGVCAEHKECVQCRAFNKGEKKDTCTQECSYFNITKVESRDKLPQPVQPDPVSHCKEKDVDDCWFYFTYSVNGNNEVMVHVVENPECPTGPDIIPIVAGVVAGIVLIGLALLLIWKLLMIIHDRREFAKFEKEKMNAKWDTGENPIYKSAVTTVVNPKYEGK", "test": "Solid phase ELISA of integrin α5β1 binding", "conditions": "coated at 2 μg/ml; 1 μg/ml integrin", "protocol": "In a second approach, a solid phase binding assay was used in which CTGF1-4 or FN were individually coated onto microtiter wells that were subsequently incubated with purified integrin α5β1. The presence of immobilized integrin α5β1 was detected by ELISA using an anti-integrin α5β1 antibody similar to the methods described in Example 3 above. In addition, CTGF1-4 bound to integrin α5β1 in a dose-dependent manner, with maximal binding at 2 μg/ml CTGF. This level of CTGF1-4 (2 μg/ml) binding was the same as that elicited by 2 μg/ml FN, a well known ligand of integrin α5β1. In a similar experiment, 2 μg/ml of CTGF1-4;CTGF3-4 or CTGF4 were individually precoated onto microtiter wells. Using the solid-phase assay, integrin α5β1 bound to CTGF1-4, CTGF3-4 or CTGF4 See FIG. 5 (Panel B).\nTo directly analyze whether α5β1 integrin binds to CTGF4, microtiter wells coated with CTGF4 (2 μg/ml) or FN (4 μg/ml) were used in an ELISA assay to detect integrin binding, as described in Example 3. For these assays, 1 μg/ml integrin α5β1, alone or in the presence of 35 μM of P2peptide (CTGF[257-272]) and 35 μM of P5 peptide (CTGF [285-291]), were added to the precoated plates. […] The binding between CTGF4 and integrin α5 β1 was blocked by peptide P5 (CTGF [285-291]) or peptide P2 (CTGF[257-272]). […]"}, "PSCs": {"test_system": "PSCs", "test": "PSC chemotaxis (migration) assay in culture insert", "assay_type": "cell-based, rat", "conditions": "substance in lower chamber", "protocol": "To examine whether CTGF plays a role in PSC migration, a chemotaxis assay was carried out in which the migratory behavior of PSCs in the upper chamber of a culture insert was assessed following addition of CTGF to the lower chamber. […] PSC migration was also promoted by FN, PDGF or TGF-β1."}}, "note": "“Also recorded” adds a separate entry of the source.", "data": [{"molecule": "B1", "values": [{"measurement": "3T3 cell adhesion, maximal binding at", "setting": "3T3 cells", "result": 8, "unit": "ng/well"}, {"measurement": "adhesion of several additional cell types", "setting": "[1]", "result": "promoted the dose-dependent adhesion"}, {"measurement": "fibrogenic response", "setting": "neonatal mice", "result": "most robust response"}, {"measurement": "binding to αvβ3", "setting": "integrin αvβ3", "result": "strongest affinity"}, {"measurement": "PSC adhesion supported by the coated substance", "setting": "[2]", "result": "significantly promoted"}, {"measurement": "binding to integrin α5β1", "setting": "integrin α5β1", "result": "bound; also recorded: bound strongly"}, {"measurement": "PSC migration", "setting": "PSCs", "result": "induced PSC migration"}]}]}
